Target: the molecule itself
Assay: cryo-EM structure

B1: mature wild-type S. cerevisiae PIM1 lacking the mitochondrial targeting sequence (Met182 – Asp1133) (enzyme, UniProt P36775 182-1133, looked up)
chain: MLALPIARRPLFPGFYKAVVISDERVMKAIKEMLDRQQPYIGAFMLKNSEEDTDVITDKNDVYDVGVLAQITSAFPSKDEKTGTETMTALLYPHRRIKIDELFPPNEEKEKSKEQAKDTDTETTVVEDANNPEDQESTSPATPKLEDIVVERIPDSELQHHKRVEATEEESEELDDIQEGEDINPTEFLKNYNVSLVNVLNLEDEPFDRKSPVINALTSEILKVFKEISQLNTMFREQIATFSASIQSATTNIFEEPARLADFAAAVSAGEEDELQDILSSLNIEHRLEKSLLVLKKELMNAELQNKISKDVETKIQKRQREYYLMEQLKGIKRELGIDDGRDKLIDTYKERIKSLKLPDSVQKIFDDEITKLSTLETSMSEFGVIRNYLDWLTSIPWGKHSKEQYSIPRAKKILDEDHYGMVDVKDRILEFIAVGKLLGKVDGKIICFVGPPGVGKTSIGKSIARALNRKFFRFSVGGMTDVAEIKGHRRTYIGALPGRVVQALKKCQTQNPLILIDEIDKIGHGGIHGDPSAALLEVLDPEQNNSFLDNYLDIPIDLSKVLFVCTANSLETIPRPLLDRMEVIELTGYVAEDKVKIAEQYLVPSAKKSAGLENSHVDMTEDAITALMKYYCRESGVRNLKKHIEKIYRKAALQVVKKLSIEDSPTSSADSKPKESVSSEEKAENNAKSSSEKTKDNNSEKTSDDIEALKTSEKINVSISQKNLKDYVGPPVYTTDRLYETTPPGVVMGLAWTNMGGCSLYVESVLEQPLHNCKHPTFERTGQLGDVMKESSRLAYSFAKMYLAQKFPENRFFEKASIHLHCPEGATPKDGPSAGVTMATSFLSLALNKSIDPTVAMTGELTLTGKVLRIGGLREKAVAAKRSGAKTIIFPKDNLNDWEELPDNVKEGLEPLAADWYNDIFQKLFKDVNTKEGNSVWKAEFEILDAKKEKD
stoichiometry N: 6
